Test results: publication PMC2706497

Substrate: NCCCCc1ccccc1
Test: steady-state kinetics
Format: biochemical, Homo sapiens
Conditions: FAD (covalent)

B1: MAO-B (Homo sapiens) (protein)
chain: SNKCDVVVVGGGISGMAAAKLLHDSGLNVVVLEARDRVGGRTYTLRNQKVKYVDLGGSYVGPTQNRILRLAKELGLETYKVNEVERLIHHVKGKSYPFRGPFPPVWNPITYLDHNNFWRTMDDMGREIPSDAPWKAPLAEEWDNMTMKELLDKLCWTESAKQLATLFVNLCVTAETHEVSALWFLWYVKQCGGTTRIISTTNGGQERKFVGGSGQVSERIMDLLGDRVKLERPVIYIDQTRENVLVETLNHEMYEAKYVISAIPPTLGMKIHFNPPLPMMRNQMITRVPLGSVIKCIVYYKEPFWRKKDYCGTMIIDGEEAPVAYTLDDTKPEGNYAAIMGFILAHKARKLARLTKEERLKKLCELYAKVLGSLEALEPVHYEEKNWCEEQYSGGCYTTYFPPGILTQYGRVLRQPVDRIYFAGTETATHWSGYMEGAVEAGERAAREILHAMGKIPEDEIWQSEPESVDVPAQPITTTFLERHLPSVPGLLRLIGLTTIFSATALGFLAHKRGLLVRV
B1 gave a Km of 19 ± 3 µM.
